The source of these data is patent US20240052052A1 (ANTENGENE BIOLOGICS, published 2024).

Experiment [1] has as its target T1, human CD24 (human, UniProt P25063 27-59, heavily glycosylated, GPI-anchored (as described in the background)).
T1 construct: whole, on cells; Target of all cell-based FACS assays; also called hCD24; Cluster of differentiation 24
T1 chain (looked up): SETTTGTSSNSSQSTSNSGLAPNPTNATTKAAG
In words: flow cytometry, HT-29 and Nalm6 cells. The procedure:
Briefly, HT-29 or Nalm6 cells were washed three times using PBS and firstly incubated with humanized variants. After three times washing, secondary antibody was incubated with cells. MFI of the samples was analyzed with Flow Cytometry and cells-based affinity was calculated.

The target in experiment [2] is T1, human CD24. In words: FACS, HT-29 cells. The procedure:
(§1) Sequences of some of antibodies from Table 1 were selected to generate and produce human IgG4 chimeric antibodies. […] The protocol for FACs analysis is described as follows: [0536] a. Digested cells using TrypLE™ Express Enzyme (IX); Centrifuged the harvested cells at 400 g for 5 min and discarding the supernatant. [0537] b. Washed the cells 2 times with cold FACS buffer by centrifuging at 400 g for 5 min and discarding the supernatant. [0538] c. […] Incubate at […] for 1 h. [0539] d. Washed the cells twice by using the condition in step b. Resuspended the cells with 100 μl/well diluted 2nd antibody, incubated at 4 degree for 1 h in the dark. [0540] e. Washed the cells twice by using the condition in step b. Resuspended the cells with 100 μl/well cold FACS buffer. Kept the cells in dark for FACS analysis.

Experiment [3] deals with T1, human CD24. In words: FACS, MCF7 cells. The procedure: as §1
Experiment [4] concerns the target T1, human CD24. In words: FACS, 5637 cells. The procedure: as §1
Experiment [5] has as its target T1, human CD24. In words: FACS, 5637 cells. The procedure:
(§2) Screening & Expansion: The subcloning plates were screened by Acumen assay and the subclones with good binding ability were expanded to 24-wells for confirmation tests. The specificity and cross-reactivity of these subclones were confirmed with FACs analysis. […] Fluorescent dye-conjugated secondary antibody was used to detect the binding of the primary antibody with the cells. Median fluorescence intensity (MFI) was measured by FACs analysis.

In experiment [6] the target is T1, human CD24. Nature of the experiment: FACS, H1975 cells. The procedure:
as §2

The target in experiment [7] is T1, human CD24. In words: FACS, A549 cells. The procedure: as §1
In experiment [8] the target is T1, human CD24. In words: FACS, H1975 cells. The procedure:
as §1

Experiment [9] addresses T1, human CD24. Nature of the experiment: FACS, MDA-MB-468 cells. The procedure: as §1
Experiment [10] has as its target T1, human CD24. Nature of the experiment: FACS, MCF7 cells. The procedure: as §2
For experiment [11], the target named is T1, human CD24. In words: FACS, 293F-hCD24 cells. The procedure:
as §2

The target in experiment [12] is T1, human CD24. In words: FACS, 293F-hCD24 cells. The procedure:
as §1

Experiment [13] addresses T1, human CD24. Nature of the experiment: FACS, Nalm1 cells. The procedure:
as §2

The target of experiment [14] is T1, human CD24. In words: FACS, Nalm1 cells. The procedure: as §1
The target in experiment [15] is T1, human CD24. In words: FACS, CHOK1-hCD24 cells. The procedure: as §1
In experiment [16] the target is T1, human CD24. In words: FACS, Nalm1 cells.
Experiment [17] addresses T1, human CD24. In words: FACS, CHOK1-hCD24 cells.
In experiment [18] the target is T1, human CD24. Nature of the experiment: FACS, MCF7 cells.
Experiment [19] deals with T1, human CD24. In words: FACS, 293F-hCD24 cells.
The target in experiment [20] is T1, human CD24. In words: cell-based or functional assay.
Experiment [21] addresses T1, human CD24. In words: FACS, MDA-MB-468 cells.
Experiment [22] addresses T1, human CD24. In words: FACS, 5637 cells.

B1: 81A1F8-VH-11/VL-21 (antibody, V domains shown)
VH: QVQLVQSGAEVKKPGASVKVSCKASGYLFTGYYMNWVRQAPGQGLEWMGEINPNTGDTNNNQKFKARVTMTVDRSISTAYMELSRLRSDDTAVYYCVRRDYGTSLDYWGQGTLVTVSS
VL: DVQITQSPSFLSASVGDRVTITCRASKSINKYLAWYQQKPGKAPKLLIHSGSTLQSGVPSRFSGSRSGTEFTLTISSLQPEDFATYYCQQHNEYPITFGQGTKLEIK
notes: humanized antibody based on 81A1F8; also called 81A1F8-1121
As to B1, the binding result in experiment [1] is reported as “binds”.

B2: 81A1F8-VH-21/VL-21 (antibody, V domains shown)
VH: QVQLVQSGAEVKKPGASVKVSCKASGYLFTGYYMNWVRQAPGQGLEWMGEINPNTGDTNNNQKFKARVTMTVDRSTSTAYMELSSLRSEDTAVYYCVRRDYGTSLDYWGQGTLVTVSS
VL: DVQITQSPSFLSASVGDRVTITCRASKSINKYLAWYQQKPGKAPKLLIHSGSTLQSGVPSRFSGSRSGTEFTLTISSLQPEDFATYYCQQHNEYPITFGQGTKLEIK
notes: humanized antibody based on 81A1F8; also called 81A1F8-2121
With B2, the binding result in [1] is “binds”.

B3: 81A1F8-VH-11/VL-41 (antibody, V domains shown)
VH: QVQLVQSGAEVKKPGASVKVSCKASGYLFTGYYMNWVRQAPGQGLEWMGEINPNTGDTNNNQKFKARVTMTVDRSISTAYMELSRLRSDDTAVYYCVRRDYGTSLDYWGQGTLVTVSS
VL: DVQITQSPSTLSASVGDRVTITCRASKSINKYLAWYQQKPGKAPKLLIHSGSTLQSGVPSRFSGSRSGTEFTLTISSLQPDDFATYYCQQHNEYPITFGQGTKLEIK
notes: humanized antibody based on 81A1F8
Turning to B3, the binding result in experiment [1] is listed as “binds”.

B4: 81A1F8-VH-21/VL-41 (antibody, V domains shown)
VH: QVQLVQSGAEVKKPGASVKVSCKASGYLFTGYYMNWVRQAPGQGLEWMGEINPNTGDTNNNQKFKARVTMTVDRSTSTAYMELSSLRSEDTAVYYCVRRDYGTSLDYWGQGTLVTVSS
VL: DVQITQSPSTLSASVGDRVTITCRASKSINKYLAWYQQKPGKAPKLLIHSGSTLQSGVPSRFSGSRSGTEFTLTISSLQPDDFATYYCQQHNEYPITFGQGTKLEIK
notes: humanized antibody based on 81A1F8; also called 81A1F8-2141
As to B4, the binding result in experiment [1] is on record as “binds”.

B5: 110D4G4 (antibody, V domains shown)
VH: EVQLQQSGPGLVKPGASVKISCRASGYLFTGYYMNWVKQSPEKSLEWIGEINPNTGDPRYDQKFKAKATLTVDRSSSTAYMHLKSLTSEDSAVYFCARRDYGTSLDYWGQGTTLTVTS
VL: DVQITQSPSYLAASPGETITINCRASKSISKYLAWYQEKPGKTNKLLIYSGSTLQSGIPSRFSGSGSGSDFTLTISSLEPEDFAMYYCQQHNEYPLTFGAGTKLELK
notes: mouse monoclonal antibody; also called mAb-110D4G4
As to B5, the concentration giving a half-maximal response (EC50) in experiment [2] came to 2.92 nM; in experiment [3] it was 5.2 nM; in [4], 5.89 nM; in experiment [7], 2.72 nM; in experiment [8], 5.22 nM; in experiment [9] it was 12.2 nM. Also, the concentration for a half-maximal effect (EC50) in [12] worked out at 6.55 nM; in experiment [14], 3.27 nM; in experiment [15], 1.52 nM. Moreover, the “Max MFI” value in experiment [2] came to 5610; in experiment [7], 18400; in [12], 56500; in experiment [14], 76200; in experiment [15], 28900. Further, the “FACS MFI” value stood at 47100 in [5]; 24900 in [6]; 52800 in [9]; 21200 in [10]; 56500 in [11]; 76200 in experiment [13].

B6: SN3 (antibody, V domains shown)
VH: QVQLKESGPGLVAPSQSLSITCTVSGFSLTSYGVHWVRQPPGKGLEWLGVIWAGGSTNYNSALMSRLSISKDNSKSQVFLKMNSLQTDDTAMYYCAVYYGYLFFAYWGQGTLVTVSA
VL: ENVLTQSPAIMSASPGEKVTMTCSASSSVSYMHWYQQKSTTSPKLWIYDTSKLASGVPGRFSGSGSGNSYSLTISSMEAEDVATYYCFQGSGYPLTFGGGTKLEIK
As to B6, the EC50 was 6.61 nM in experiment [2]; 8 nM in experiment [3]; 5.08 nM in experiment [16]; 2.7 nM in experiment [4]; 8.67 nM in experiment [17]; 3 nM in experiment [7]. Moreover, the 50% effective concentration (EC50) in [8] is 8.26 nM; in experiment [9], 4.2 nM; in [18], 6.54 nM; in experiment [19] it was 3.5 nM; in experiment [21], 7.37 nM; in [22], 5.74 nM. The figures for the 50% effective concentration (EC50) in experiment [12], in experiment [14] and in experiment [15] were 3.25 nM, 3.43 nM and 3.63 nM, respectively. Moreover, the “Max MFI” value is 5900 in experiment [2]; 761 in [3]; 8820 in experiment [7]; 10800 in [9]; 34100 in [12]; 48400 in experiment [14]. The “Max MFI” value in experiment [15] turned out to be 29700. In addition, the “FACS MFI” value amounted to 9400 in experiment [5]; 5210 in experiment [6]; 6690 in [9]; 1080 in experiment [10]; 6560 in experiment [11]; 11800 in [13]. The “EC50 (nM), phagocytosis against HT-29 cells” value in experiment [20] worked out at 2.1 nM. Also, the “Max phagocytosis Index (%), phagocytosis against HT-29 cells” value in experiment [20] worked out at 68.2%.
